From patent US6833355

Legend:
[1] = target: nuclear proteins (mixture of Jurkat nuclear extract proteins purified on protein H-Sepharose); assay: SPR (BIACORE X), protein H over immobilised nuclear proteins; mean ± SD of three experiments
[2] = target: nucleophosmin/B23 (NPM), papain-released material of Jurkat T cell membrane preparations, Mono-Q pool 85-87 (human) (UniProt P06748); assay: SPR (BIACORE X), protein H over biotinylated NPM on an avidin chip; mean ± SD of three experiments
[3] = target: nucleophosmin/B23 (NPM), papain-released material of Jurkat T cell membrane preparations, Mono-Q pool 85-87 (human) (UniProt P06748); assay: Affinity chromatography of 125I-labelled pool 85-87 (run-through of protein A-Sepharose) on protein H-Sepharose

protein H of Streptococcus pyogenes, COOH-terminally truncated fragment expressed by and purified from E. coli (305 amino acids), sequence (P50470 42-346): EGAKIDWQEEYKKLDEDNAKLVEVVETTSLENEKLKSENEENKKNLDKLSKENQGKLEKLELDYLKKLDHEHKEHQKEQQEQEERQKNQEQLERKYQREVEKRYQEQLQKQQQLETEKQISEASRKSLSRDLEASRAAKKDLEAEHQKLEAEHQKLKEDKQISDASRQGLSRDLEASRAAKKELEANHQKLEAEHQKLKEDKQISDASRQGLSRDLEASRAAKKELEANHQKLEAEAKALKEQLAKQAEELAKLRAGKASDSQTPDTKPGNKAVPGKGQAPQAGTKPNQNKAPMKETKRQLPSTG
nucleophosmin/B23 (NPM), papain-released material of Jurkat T cell membrane preparations, Mono-Q pool 85-87 (human), sequence (P06748 1-147 limits assumed): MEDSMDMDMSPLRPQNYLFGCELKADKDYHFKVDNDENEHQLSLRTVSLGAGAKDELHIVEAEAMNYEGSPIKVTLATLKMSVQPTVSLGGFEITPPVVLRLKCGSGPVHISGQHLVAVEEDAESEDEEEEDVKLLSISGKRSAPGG

protein H of Streptococcus pyogenes, COOH-terminally truncated fragment expressed by and purified from E. coli (305 amino acids) (from UniProt P50470 42-346)
Ka [1]: 2.62e+07 M⁻¹ | Kd [1]: 44 nM | koff [1]: 6.7e-05 s⁻¹ | kon [1]: 1700 M⁻¹ s⁻¹ | Ka [2]: 3.6e+06 M⁻¹ | Kd [2]: 286 nM | koff [2]: 0.0019 s⁻¹ | kon [2]: 6700 M⁻¹ s⁻¹ | percent of radioactivity bound [3]: > 70%
